T1: human claudin 6 (CLDN6) (human, UniProt P56747 1-220)
T1 construct: also called human CLDN6; hCLDN6
T1 sequence: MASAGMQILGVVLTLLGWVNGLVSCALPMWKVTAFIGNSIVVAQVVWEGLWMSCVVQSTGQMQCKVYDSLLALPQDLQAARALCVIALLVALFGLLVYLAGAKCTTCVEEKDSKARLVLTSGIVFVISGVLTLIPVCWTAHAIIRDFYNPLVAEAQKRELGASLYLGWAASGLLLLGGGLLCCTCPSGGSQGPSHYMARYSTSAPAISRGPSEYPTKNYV

B1: BG87P-23 (antibody, V domains shown)
VH: QIQLVQSGAEVKKPGASVKVSCKASGYSFTDYHINWVRQAPGQRLEWMGWIYPGSGYTKYNEKFKGRVTITRDTSASTAYMELSSLRSEDTAVYYCARSGIYHYVSSYYFDHWGKGTTVTVSS
VL: DIQMTQSPSTLSASVGDRVTITCKASQDVGTAVAWYQQKPGKAPKLLIYWASTRHTGVPSRFSGSGSGTEFTLTISSLQPDDFATYYCQQYSSYTFGGGTKVEIK
B2: BG87P-24 (antibody, V domains shown)
VH: QVQLVQSGAEVKKPGASVKVSCKASGYSFTDYHINWVRQAPGQRLEWMGWIYPGSGYTKYNEKFKGRVTLTRDTSASTAYMELSSLRSEDTAVYYCARSGIYHYVSSYYFDHWGKGTTVTVSS
VL: DIQMTQSPSTLSASVGDRVTITCKASQDVGTAVAWYQQKPGKAPKLLIYWASTRHTGVPSRFSGSGSGTEFTLTISSLQPDDFATYYCQQYSSYTFGGGTKVEIK
B3: BG87P-Bz0 (antibody, V domains shown)
VH: QIQLVQSGAEVKKPGASVKVSCKASGYSFTDYHINWVRQAPGQRLEWMGWIYPGSGYTKYNEKFKVRVTLTVDTSASTAYMELSSLRSEDTAVYFCARSGIYHYVSSYYFDHWGKGTTVTVSS
VL: DIQMTQSPSTLSASVGDRVTITCKASQDVGTAVAWYQQKPGKSPKLLIYWASTRHTGVPSRFSGSGSGTEFTLTISSVQPDDFATYFCQQYSSYTFGGGTKVEIK
notes: Humanized, all back mutations; also called BG87P-B20; BG87-Bz0
B4: BG87P-Bz1 (antibody, V domains shown)
VH: QVQLVQSGAEVKKPGASVKVSCKASGYSFTDYHINWVRQAPGQRLEWMGWIYPGSGYTKYNEKFKVRVTLTVDTSASTAYMELSSLRSEDTAVYFCARSGIYHYVSSYYFDHWGKGTTVTVSS
VL: DIQMTQSPSTLSASVGDRVTITCKASQDVGTAVAWYQQKPGKSPKLLIYWASTRHTGVPSRFSGSGSGTEFTLTISSVQPDDFATYFCQQYSSYTFGGGTKVEIK
B5: BG87P-Bz2 (antibody, V domains shown)
VH: QIQLVQSGAEVKKPGASVKVSCKASGYTFTDYHINWVRQAPGQRLEWMGWIYPGSGYTKYNEKFKVRVTLTVDTSASTAYMELSSLRSEDTAVYFCARSGIYHYVSSYYFDHWGKGTTVTVSS
VL: DIQMTQSPSTLSASVGDRVTITCKASQDVGTAVAWYQQKPGKSPKLLIYWASTRHTGVPSRFSGSGSGTEFTLTISSVQPDDFATYFCQQYSSYTFGGGTKVEIK
B6: BG87P-Bz3 (antibody, V domains shown)
VH: QIQLVQSGAEVKKPGASVKVSCKASGYSFTDYHINWVRQAPGQRLEWMGWIYPGSGYTKYNEKFKVRVTITVDTSASTAYMELSSLRSEDTAVYFCARSGIYHYVSSYYFDHWGKGTTVTVSS
VL: DIQMTQSPSTLSASVGDRVTITCKASQDVGTAVAWYQQKPGKSPKLLIYWASTRHTGVPSRFSGSGSGTEFTLTISSVQPDDFATYFCQQYSSYTFGGGTKVEIK
notes: also called BG87P-B23
B7: BG87P-Bz4 (antibody, V domains shown)
VH: QIQLVQSGAEVKKPGASVKVSCKASGYSFTDYHINWVRQAPGQRLEWMGWIYPGSGYTKYNEKFKVRVTLTRDTSASTAYMELSSLRSEDTAVYFCARSGIYHYVSSYYFDHWGKGTTVTVSS
VL: DIQMTQSPSTLSASVGDRVTITCKASQDVGTAVAWYQQKPGKSPKLLIYWASTRHTGVPSRFSGSGSGTEFTLTISSVQPDDFATYFCQQYSSYTFGGGTKVEIK
notes: also called BG87P-B24
B8: BG87P-Bz5 (antibody, V domains shown)
VH: QIQLVQSGAEVKKPGASVKVSCKASGYSFTDYHINWVRQAPGQRLEWMGWIYPGSGYTKYNEKFKVRVTLTVDTSASTAYMELSSLRSEDTAVYYCARSGIYHYVSSYYFDHWGKGTTVTVSS
VL: DIQMTQSPSTLSASVGDRVTITCKASQDVGTAVAWYQQKPGKSPKLLIYWASTRHTGVPSRFSGSGSGTEFTLTISSVQPDDFATYFCQQYSSYTFGGGTKVEIK
notes: also called BG87P-B25
B9: BG87P-Bz6 (antibody, V domains shown)
VH: QIQLVQSGAEVKKPGASVKVSCKASGYSFTDYHINWVRQAPGQRLEWMGWIYPGSGYTKYNEKFKVRVTLTVDTSASTAYMELSSLRSEDTAVYFCARSGIYHYVSSYYFDHWGKGTTVTVSS
VL: DIQMTQSPSTLSASVGDRVTITCKASQDVGTAVAWYQQKPGKAPKLLIYWASTRHTGVPSRFSGSGSGTEFTLTISSVQPDDFATYFCQQYSSYTFGGGTKVEIK
notes: also called BG87P-B26
B10: BG87P-Bz7 (antibody, V domains shown)
VH: QIQLVQSGAEVKKPGASVKVSCKASGYSFTDYHINWVRQAPGQRLEWMGWIYPGSGYTKYNEKFKVRVTLTVDTSASTAYMELSSLRSEDTAVYFCARSGIYHYVSSYYFDHWGKGTTVTVSS
VL: DIQMTQSPSTLSASVGDRVTITCKASQDVGTAVAWYQQKPGKSPKLLIYWASTRHTGVPSRFSGSGSGTEFTLTISSLQPDDFATYFCQQYSSYTFGGGTKVEIK
notes: also called BG87P-B27
B11: BG87P-Bz8 (antibody, V domains shown)
VH: QIQLVQSGAEVKKPGASVKVSCKASGYSFTDYHINWVRQAPGQRLEWMGWIYPGSGYTKYNEKFKVRVTLTVDTSASTAYMELSSLRSEDTAVYFCARSGIYHYVSSYYFDHWGKGTTVTVSS
VL: DIQMTQSPSTLSASVGDRVTITCKASQDVGTAVAWYQQKPGKSPKLLIYWASTRHTGVPSRFSGSGSGTEFTLTISSVQPDDFATYYCQQYSSYTFGGGTKVEIK
B12: BG87P-m5 (antibody, V domains shown)
VH: QIQLVQSGAEVKKPGASVKVSCKASGYSFTDYHINWVRQAPGQRLEWMGWIYPGSGYTKYNEKFKVRVTLTVDTSASTAYMELSSLRSEDTAVYFCARSGIYHYVSSYYFEHWGKGTTVTVSS
VL: DIQMTQSPSTLSASVGDRVTITCKASQDVGTAVAWYQQKPGKSPKLLIYWASTRHTGVPSRFSGSGSGTEFTLTISSVQPDDFATYFCQQYSSYTFGGGTKVEIK
notes: PTM removal variant of BG87P-Bz0
B13: BG87P-m6 (antibody, V domains shown)
VH: QIQLVQSGAEVKKPGASVKVSCKASGYSFTDYHINWVRQAPGQRLEWMGWIYPGSGYTKYNEKFKVRVTLTVDTSASTAYMELSSLRSEDTAVYFCARSGIYHYVSSYYFQHWGKGTTVTVSS
VL: DIQMTQSPSTLSASVGDRVTITCKASQDVGTAVAWYQQKPGKSPKLLIYWASTRHTGVPSRFSGSGSGTEFTLTISSVQPDDFATYFCQQYSSYTFGGGTKVEIK
notes: as for B12
B14: BG87P-m7 (antibody, V domains shown)
VH: QIQLVQSGAEVKKPGASVKVSCKASGYSFTDYHINWVRQAPGQRLEWMGWIYPGSGYTKYNEKFKGRVTLTVDTSASTAYMELSSLRSEDTAVYFCARSGIYHYVSSYYFDHWGKGTTVTVSS
VL: DIQMTQSPSTLSASVGDRVTITCKASQDVGTAVAWYQQKPGKSPKLLIYWASTRHTGVPSRFSGSGSGTEFTLTISSVQPDDFATYFCQQYSSYTFGGGTKVEIK
notes: as for B12
B15: BG87P-m8 (antibody, V domains shown)
VH: QIQLVQSGAEVKKPGASVKVSCKASGYSFTDYAINWVRQAPGQRLEWMGWIYPGSGYTKYNEKFKVRVTLTVDTSASTAYMELSSLRSEDTAVYFCARSGIYHYVSSYYFDHWGKGTTVTVSS
VL: DIQMTQSPSTLSASVGDRVTITCKASQDVGTAVAWYQQKPGKSPKLLIYWASTRHTGVPSRFSGSGSGTEFTLTISSVQPDDFATYFCQQYSSYTFGGGTKVEIK
notes: Variant of BG87P-Bz0 with H33A
B16: BG87P-m1 (antibody, V domains shown)
VH: QIQLQQSGPELVKPGASVKISCKASGYSFTDYHINWVKQRPGQGLEWIGWIYPGSGYTKYNEKFKVKATLTVDTSSSTAYMHLTSLTSEDSAVYFCARSGIYHYVSSYYFEHWGQGTTLTVSS
VL: DIVMTQSHTFMSTSVGDRVSITCKASQDVGTAVAWYQQKPGQSPKLLIYWASTRHTGVPDRFTGSGSGTDFTLTISNVQSEDLADYFCQQYSSYTFGGGTKLEIK
notes: PTM removal variant of chBG87P
B17: BG87P-m2 (antibody, V domains shown)
VH: QIQLQQSGPELVKPGASVKISCKASGYSFTDYHINWVKQRPGQGLEWIGWIYPGSGYTKYNEKFKVKATLTVDTSSSTAYMHLTSLTSEDSAVYFCARSGIYHYVSSYYFQHWGQGTTLTVSS
VL: DIVMTQSHTFMSTSVGDRVSITCKASQDVGTAVAWYQQKPGQSPKLLIYWASTRHTGVPDRFTGSGSGTDFTLTISNVQSEDLADYFCQQYSSYTFGGGTKLEIK
notes: as for B16
B18: BG87P-m3 (antibody, V domains shown)
VH: QIQLQQSGPELVKPGASVKISCKASGYSFTDYHINWVKQRPGQGLEWIGWIYPGSGYTKYNEKFKGKATLTVDTSSSTAYMHLTSLTSEDSAVYFCARSGIYHYVSSYYFDHWGQGTTLTVSS
VL: DIVMTQSHTFMSTSVGDRVSITCKASQDVGTAVAWYQQKPGQSPKLLIYWASTRHTGVPDRFTGSGSGTDFTLTISNVQSEDLADYFCQQYSSYTFGGGTKLEIK
notes: PTM removal variant of chBG87P with VH V65G
B19: BG87P-m4 (antibody, V domains shown)
VH: QIQLQQSGPELVKPGASVKISCKASGYSFTDYAINWVKQRPGQGLEWIGWIYPGSGYTKYNEKFKVKATLTVDTSSSTAYMHLTSLTSEDSAVYFCARSGIYHYVSSYYFDHWGQGTTLTVSS
VL: DIVMTQSHTFMSTSVGDRVSITCKASQDVGTAVAWYQQKPGQSPKLLIYWASTRHTGVPDRFTGSGSGTDFTLTISNVQSEDLADYFCQQYSSYTFGGGTKLEIK
notes: Variant of chBG87P with H33A

target: T1, human claudin 6 (CLDN6); assay: flow cytometry, PA-1 cells; ratio to chBG87P
Procedure: (§1) For affinity determination, CLDN6 over-expressing HEK293T cells and cancer cell line PA-1 which express high levels of human CLDN6 were used to evaluate the binding activity of BG87P related engineering variants. Live cells were seeded in 96-well plate, and were incubated with a series of dilutions of chBG87P and engineered variants thereof. Goat anti-human IgG was used as second antibody to detect antibody binding to the cell surface. EC50 values for dose-dependent binding to CLDN6 expressing cell lines were determined by fitting the dose-response data to the four-parameter logistic model with GraphPad Prism. Cell binding activity of 1st round of BG87P humanization variants against HEK293T/human CLDN6 were compared to chBG87P and shown in FIG. 1A.

| Binder | Emax ratio to BG87P |
| --- | --- |
| B1 | 0.58 |
| B2 | 0.5 |

target: T1, human claudin 6 (CLDN6); assay: flow cytometry, HEK293T-human CLDN6 cells; ratio to chBG87P
Procedure: as §1

| Binder | Emax ratio to BG87P |
| --- | --- |
| B3 | 0.56 |
| B1 | 0.77 |
| B2 | 0.73 |
| B4 | 0.52 |
| B5 | 0.44 |
| B6 | 0.56 |
| B7 | 0.57 |
| B8 | 0.73 |
| B9 | 0.75 |
| B10 | 0.81 |
| B11 | 0.68 |
| B12 | 0.66 |
| B13 | 0.62 |
| B14 | 0.7 |
| B15 | 0.28 |
| B16 | 1.08 |
| B17 | 1.05 |
| B18 | 1.18 |
| B19 | 0.74 |

— patent US20240301061A1 (BEIGENE SWITZERLAND, published 2024)
